Data published in patent US20070274915.

Test system: AU-tagged PLC-γ1
Sequence (P19174 2-1290): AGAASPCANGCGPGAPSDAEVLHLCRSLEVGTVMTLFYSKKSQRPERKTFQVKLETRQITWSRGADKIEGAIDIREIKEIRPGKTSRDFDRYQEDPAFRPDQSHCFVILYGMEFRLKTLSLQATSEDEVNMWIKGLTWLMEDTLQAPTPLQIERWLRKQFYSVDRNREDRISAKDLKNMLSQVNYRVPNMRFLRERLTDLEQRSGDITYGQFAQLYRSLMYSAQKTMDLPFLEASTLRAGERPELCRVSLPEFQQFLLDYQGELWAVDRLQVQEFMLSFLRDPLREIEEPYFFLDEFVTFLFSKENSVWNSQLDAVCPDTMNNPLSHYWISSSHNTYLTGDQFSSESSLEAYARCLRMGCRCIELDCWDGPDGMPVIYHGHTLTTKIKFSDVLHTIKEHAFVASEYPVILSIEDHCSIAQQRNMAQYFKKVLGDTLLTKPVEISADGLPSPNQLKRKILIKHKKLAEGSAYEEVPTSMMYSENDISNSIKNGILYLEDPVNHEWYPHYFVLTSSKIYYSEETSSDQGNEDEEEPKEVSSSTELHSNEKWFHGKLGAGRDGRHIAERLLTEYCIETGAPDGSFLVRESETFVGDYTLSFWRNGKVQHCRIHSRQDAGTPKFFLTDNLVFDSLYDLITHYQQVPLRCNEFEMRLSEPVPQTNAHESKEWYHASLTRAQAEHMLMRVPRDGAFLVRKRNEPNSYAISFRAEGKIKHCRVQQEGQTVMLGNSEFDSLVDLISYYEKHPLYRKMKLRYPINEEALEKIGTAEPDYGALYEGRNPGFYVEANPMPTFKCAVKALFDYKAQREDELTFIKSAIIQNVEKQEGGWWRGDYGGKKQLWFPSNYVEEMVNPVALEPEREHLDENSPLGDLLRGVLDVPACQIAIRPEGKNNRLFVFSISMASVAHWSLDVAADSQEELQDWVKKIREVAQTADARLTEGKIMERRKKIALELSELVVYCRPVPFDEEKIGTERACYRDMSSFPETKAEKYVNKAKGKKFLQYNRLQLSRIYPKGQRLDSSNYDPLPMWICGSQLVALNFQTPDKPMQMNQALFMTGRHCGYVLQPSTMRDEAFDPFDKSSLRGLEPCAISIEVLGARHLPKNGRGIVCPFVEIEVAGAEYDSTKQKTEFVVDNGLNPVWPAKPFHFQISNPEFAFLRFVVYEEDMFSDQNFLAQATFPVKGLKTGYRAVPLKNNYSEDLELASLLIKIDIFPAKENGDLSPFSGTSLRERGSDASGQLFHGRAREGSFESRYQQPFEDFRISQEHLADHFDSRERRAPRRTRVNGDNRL

myc-tagged Itch, sequence (chain, as listed by the source): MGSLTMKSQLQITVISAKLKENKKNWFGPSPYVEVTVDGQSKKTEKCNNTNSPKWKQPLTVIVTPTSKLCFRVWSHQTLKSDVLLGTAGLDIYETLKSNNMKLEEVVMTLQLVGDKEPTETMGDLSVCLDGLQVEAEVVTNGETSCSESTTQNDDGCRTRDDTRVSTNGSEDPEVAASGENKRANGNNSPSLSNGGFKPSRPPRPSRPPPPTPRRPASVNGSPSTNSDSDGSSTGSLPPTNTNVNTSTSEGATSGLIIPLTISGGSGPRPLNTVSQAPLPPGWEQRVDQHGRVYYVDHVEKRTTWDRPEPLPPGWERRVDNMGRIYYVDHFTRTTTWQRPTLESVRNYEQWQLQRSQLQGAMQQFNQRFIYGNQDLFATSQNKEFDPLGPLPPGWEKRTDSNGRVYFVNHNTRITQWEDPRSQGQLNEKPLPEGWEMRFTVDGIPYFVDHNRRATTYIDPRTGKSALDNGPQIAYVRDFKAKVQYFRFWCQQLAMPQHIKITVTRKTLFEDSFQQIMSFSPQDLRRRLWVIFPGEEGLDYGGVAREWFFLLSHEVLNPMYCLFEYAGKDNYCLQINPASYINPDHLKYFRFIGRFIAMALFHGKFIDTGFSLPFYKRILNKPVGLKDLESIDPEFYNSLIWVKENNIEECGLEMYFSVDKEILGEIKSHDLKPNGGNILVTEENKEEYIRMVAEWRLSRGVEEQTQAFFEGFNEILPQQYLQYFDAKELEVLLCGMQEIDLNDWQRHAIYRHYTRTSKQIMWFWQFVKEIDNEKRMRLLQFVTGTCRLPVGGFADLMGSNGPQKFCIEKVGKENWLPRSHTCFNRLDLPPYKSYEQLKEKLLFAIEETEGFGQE

With myc-tagged Itch the “ionomycin-dependent degradation of PLC-γ1 (HEK 293 transfection, immunoblot)” value was “Itch and Nedd4 both facilitated the ionomycin-dependent degradation of PLC-γ1”.
